The labels stand for the following.
B1: Cx34.7E214K/E223K/E225K (Morone americana Cx34.7 triple mutant) (protein, not shown: large carriers)
chain: MGEWTILERLLEAAVQQHSTMIGRILLTVVVIFRILIVAIVGETVYEDEQAMFICNTLQPGCNQACYDKAFPISHIRYWVFQIILVCTPSLCFITYSVHQSAKQKDRRYSFLYPIMERDYGGRDGARKLRNINGILVQHGGDGGGGKEEPDCLEVKEIPNAPRGLTHGKSSKVRRQEGISRFYIIQVVFRNALEIGFLAGQYFLYGFSVPGIFKCDRYPCLKKVKCYVSRPTEKTVFLVFMFAVSGICVVLNLAELNHLGWRKIKAAIRGVQARRKSICEIRKKDMAHLSQPPNLGRTQSSESAYV
B2: Cx35K221E (designer connexin Cx35M1, Morone americana Cx35 with K221E) (other)
chain: MGEWTILERLLEAAVQQHSTMIGRILLTVVVIFRILIVAIVGETVYDDEQTMFVCNTLQPGCNQACYDKAFPISHIRYWVFQIIMVCTPSLCFITYSVHQSAKQKERRYSTVYLTLDKDQDSLKRDESKKIKNTIVNGVLQNTENSTKEAEPDCLEVKEIPNSAMRTTKSKMRRQEGISRFYIIQVVFRNALEIGFLVGQYFLYGFNVPSVYECDRYPCIEDVECYVSRPTEKTVFLVFMFAVSGFCVVLNLAELNHLGWRKIKTAVRGVQARRKSIYEIRNKDLPRMSVPNFGRTQSSDSAYV
notes: Rationally designed hemichannel; In C. elegans expressed as GFP or mCherry fusion; in mice from AAV9 as mApple or mEmerald fusion; not shown: C-terminal fluorescent protein fusion (mEmerald or RFP670 in FETCH)
B3: Cx35E224K (Morone americana Cx35 mutant E224K) (other)
chain: B2 chain with E221K, E224K
notes: Extracellular loop mutant of the screening library; not shown: C-terminal fluorescent protein fusion (mEmerald or RFP670 in FETCH)
B4: Cx35E224R (Morone americana Cx35 mutant E224R) (other)
chain: B2 chain with E221K, E224R
notes: as for B3
B5: Cx35E224H (Morone americana Cx35 mutant E224H) (other)
chain: B2 chain with E221K, E224H
notes: as for B3
B6: Wild-type Connexin35 (Cx35) of Morone americana (other)
chain: B2 chain with E221K
notes: Connexin hemichannel (hexamer) expressed in HEK 293FT cells; In C. elegans it was expressed as GFP or mCherry fusion; also called Cx35WT; not shown: C-terminal fluorescent protein fusion (mEmerald or RFP670 in FETCH)
B7: Cx35 mutant Y78T (Morone americana) (other)
chain: B2 chain with Y78T, E221K
notes: Extracellular loop mutant of the screening library; also called Cx35 Y78T; not shown: C-terminal fluorescent protein fusion (mEmerald or RFP670 in FETCH)
B8: Cx35 mutant Y78V (Morone americana) (other)
chain: B2 chain with Y78V, E221K
notes: Extracellular loop mutant of the screening library; also called Cx35 Y78V; not shown: C-terminal fluorescent protein fusion (mEmerald or RFP670 in FETCH)
B9: Cx35 mutant L237Y (Morone americana) (other)
chain: B2 chain with E221K, L237Y
notes: Extracellular loop mutant of the screening library; also called Cx35 L237Y; not shown: C-terminal fluorescent protein fusion (mEmerald or RFP670 in FETCH)
B10: Cx35 mutant Y78S (Morone americana) (other)
chain: B2 chain with Y78S, E221K
notes: Extracellular loop mutant of the screening library; also called Cx35 Y78S; not shown: C-terminal fluorescent protein fusion (mEmerald or RFP670 in FETCH)
B11: Cx35 mutant N56E (Morone americana) (other)
chain: B2 chain with N56E, E221K
notes: Extracellular loop mutant of the screening library; also called Cx35 N56E; not shown: C-terminal fluorescent protein fusion (mEmerald or RFP670 in FETCH)
B12: Cx34.7 mutant E225K (Morone americana) (other)
chain: B1 chain with K214E, K223E
notes: Extracellular loop mutant of the screening library; also called Cx34.7 E225K; not shown: C-terminal fluorescent protein fusion (mEmerald or RFP670 in FETCH)
B13: Cx34.7 mutant L238Y (Morone americana) (other)
chain: B1 chain with K214E, K223E, K225E, L238Y
notes: Extracellular loop mutant of the screening library; also called Cx34.7 L238Y; not shown: C-terminal fluorescent protein fusion (mEmerald or RFP670 in FETCH)
B14: Cx34.7 mutant Y78T (Morone americana) (other)
chain: B1 chain with Y78T, K214E, K223E, K225E
notes: Extracellular loop mutant of the screening library; also called Cx34.7 Y78T; not shown: C-terminal fluorescent protein fusion (mEmerald or RFP670 in FETCH)
B15: Cx34.7 mutant E225R (Morone americana) (other)
chain: B1 chain with K214E, K223E, K225R
notes: Extracellular loop mutant of the screening library; also called Cx34.7 E225R; not shown: C-terminal fluorescent protein fusion (mEmerald or RFP670 in FETCH)
B16: Cx34.7 mutant Y78V (Morone americana) (other)
chain: B1 chain with Y78V, K214E, K223E, K225E
notes: Extracellular loop mutant of the screening library; also called Cx34.7 Y78V; not shown: C-terminal fluorescent protein fusion (mEmerald or RFP670 in FETCH)
B17: Cx34.7 mutant Y78S (Morone americana) (other)
chain: B1 chain with Y78S, K214E, K223E, K225E
notes: Extracellular loop mutant of the screening library; also called Cx34.7 Y78S; not shown: C-terminal fluorescent protein fusion (mEmerald or RFP670 in FETCH)

Substitutions are numbered along the chain they refer to. Numbers in names are those of the source.

T2 sequence (P17302 2-382): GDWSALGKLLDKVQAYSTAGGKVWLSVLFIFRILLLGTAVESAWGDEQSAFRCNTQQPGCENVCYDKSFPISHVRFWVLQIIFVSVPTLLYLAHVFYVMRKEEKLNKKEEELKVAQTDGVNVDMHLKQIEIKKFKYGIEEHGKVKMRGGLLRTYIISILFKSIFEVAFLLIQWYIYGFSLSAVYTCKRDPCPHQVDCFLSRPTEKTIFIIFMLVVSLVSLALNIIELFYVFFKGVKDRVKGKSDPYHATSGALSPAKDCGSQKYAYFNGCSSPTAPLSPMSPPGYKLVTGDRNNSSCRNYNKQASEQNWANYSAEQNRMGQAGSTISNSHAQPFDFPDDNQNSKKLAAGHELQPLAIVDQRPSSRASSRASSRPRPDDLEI

The first series has as its target Cx34.7E214K/E223K/E225K (Morone americana Cx34.7 triple mutant) (Morone americana). As to the kind of experiment: FETCH (flow cytometry, % dual-labelled HEK 293FT cells), homotypic. Background: A flow cytometer gives signals particle by particle.
The molecule B1 registered an FETCH score of 0.2%.

A further series has the same target. As to the kind of experiment: FETCH (flow cytometry, % dual-labelled HEK 293FT cells), heterotypic.
On to B2, for which the FETCH score came out at 1.2%.

In another series the target is T1, human connexin36 (Cx36) (human, UniProt Q9UKL4 1-321).
T1 construct: whole, on cells; Hemichannel expressed in HEK 293FT cells for FETCH; also called GJD2; not shown: C-terminal fluorescent protein fusion (mEmerald or RFP670 in FETCH)
T1 sequence (looked up): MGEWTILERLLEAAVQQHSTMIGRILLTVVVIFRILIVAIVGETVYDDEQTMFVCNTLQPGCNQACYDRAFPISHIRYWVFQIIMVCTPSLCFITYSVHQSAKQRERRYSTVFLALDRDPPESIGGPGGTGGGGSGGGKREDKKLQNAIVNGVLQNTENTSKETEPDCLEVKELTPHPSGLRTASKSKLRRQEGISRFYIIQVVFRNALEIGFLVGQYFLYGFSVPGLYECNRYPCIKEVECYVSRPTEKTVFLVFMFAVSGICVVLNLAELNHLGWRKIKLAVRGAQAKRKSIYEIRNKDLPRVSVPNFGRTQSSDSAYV
Briefly: heterotypic FETCH. As for the experimental part: (§1) Complete FETCH methodology is outlined in Ransey et. al. 2021 (Ransey E, et al. (2021) BioRxiv). Briefly, replica multi-well plates with HEK 293FT cells were transfected with either of the two connexin proteins being evaluated for docking. Following a transfection incubation period, experimental counterparts were combined, replated, and further incubated for about 20 hr to about 24 hrs, allowing cells to make contacts and potentially generate connexosomes. Co-plated samples were trypsinized, fixed in suspension and analyzed via flow cytometry. Flow cytometry data was processed with two selection gates prior to their fluorescence evaluation. First, putative HEK cells were identified by evaluating sample forward vs. side scatter area. Next, single cells were identified as the putative cells that maintained a linear correlation of forward scatter height to forward scatter area. Finally, the dual fluorescence (mEmerald vs. RFP670) profiles of each sample was generated, and the FETCH score was defined as the proportion of dual-labeled fluorescent cells that develop in a co-plated sample.
As to B3, the binding result is given as “no binding”.
On the same count and under the same terms, the result for B4 reads “no binding”.
Same read-out and setting: the result for B2 reads “no binding”.

Another series has as its target T2, human connexin43 (Cx43) (human, UniProt P17302 2-382).
T2 construct: whole, on cells; Hemichannel expressed in HEK 293FT cells for FETCH; also called GJA1; not shown: C-terminal fluorescent protein fusion (mEmerald or RFP670 in FETCH)
Briefly: heterotypic FETCH. As for the experimental part: as §1
In the case of B5, the binding result is on record as “no binding”.
In the case of B3, the binding result is “no binding”.
The same measure, in the same setting: as for B4, the entry is “no binding”; as for B2, “no binding”.

Another series deals with the molecule itself. Briefly: homotypic FETCH. As to the method: as §1
As to B2, the binding result was “no binding”.

In another series the target is T1, human connexin36 (Cx36). Briefly: FETCH (flow cytometry, % dual-labelled HEK 293FT cells), heterotypic. As to the method: as §1
The molecule B6 came in with an FETCH score of 18%.
The molecule B5 gave an FETCH score of 5.9%.
In the case of B3, the FETCH score came out at 0.8%.
Turning to B4, the FETCH score was 0.6%.
As for B2, the FETCH score stood at 1.5%.

Another series addresses T2, human connexin43 (Cx43). The series is described as above. As for the experimental part:
as §1
For the molecule B2, the FETCH score worked out at 1.7%.

The next series concerns the molecule itself. Briefly: FETCH (flow cytometry, % dual-labelled HEK 293FT cells), homotypic. As to the method:
as §1
For B2, the FETCH score was determined as 1.2%.

The target in a further series is T2, human connexin43 (Cx43). As to the kind of experiment: FETCH (flow cytometry, % dual-labelled HEK 293FT cells), heterotypic, n=6. As to the method:
as §1
Molecule B5 displayed an FETCH score of 0.4%.
B3 yielded an FETCH score of 0.5%.
Still for that read-out and setting: as for B4, the figure is 0.5%.

A further series deals with the molecule itself. Briefly: homotypic FETCH screen. As to the method:
as §1
For screening analysis, five FETCH replicates were obtained for each condition (mutation). These scores were benchmarked against scores for Cx36 and Cx45 (FETCH=1.2±0.1%, n=54 replicates). To quantitatively determine whether a connexin pair docked, FETCH scores were determined for the dual fluorescence of cells under conditions where docking was not anticipated. These conditions included pairs of connexins previously established to not show docking: (i) Cx36 and Cx45 (FETCH=0.7±0.0%, n=59 replicates), (ii) homotypic Cx23 (FETCH=0.9±0.4%, n=6 previously collected replicates (Ransey E, et al. (2021) BioRxiv), and (iii) Cx36 and Cx43 (FETCH=1.2±0.2%, n=10 previously collected replicates (Ransey E, et al. (2021) BioRxiv), and under conditions for which cells were transfected with cytoplasmic fluorophores rather than tagged connexins (FETCH=4.4±0.6%, n=17 previously collected replicates (Ransey E, et al. (2021) BioRxiv).
In the case of B7, the binding result is recorded as “no binding”.
For the molecule B5, the binding result is on record as “no binding”.
Take B8: the binding result is listed as “no binding”.
Same read-out and setting: as for B9, the entry is “no binding”; as for B10, “no binding”; as for B11, “no binding”.
On the same count and under the same terms, the result for B3 reads “no binding”.
Consider B4, for which the binding result is recorded as “no binding”.
For the molecule B12, the binding result was “no binding”.
Still for that read-out and setting: as for B13, the entry is “no binding”.
On the same count and under the same terms, as for B14, the entry is “no binding”; as for B15, “no binding”.
For B16, the binding result was “no binding”.
B17: the binding result is listed as “no binding”.

Values taken from patent publication US20250186620A1 (DUKE UNIVERSITY, published 2025).
